B1: Azoarcus group I ribozyme (parent)
chain: GUGCCUUGCGCCGGGAAACCACGCAAGGGAUGGUGUCAAAUUCGGCGAAACCUAAGCGCCCGCCCGGGCGUAUGGCAACGCCGAGCCAAGCUUCGGCGCCUGCGCCGAUGAAGGUGUAGAGACUAGACGGCACCCACCUAAGGCAAACGCUAUGGUGAAGGCAUAGUCCAGGGAGUGGCGAAAGUCACACAAACCGG

In the series the parent is B1. Nature of the series: reverse-splicing fitness (ratio to wild type); higher = more active; in vitro selection; Mg2+ level not given. In outline:
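An in vitro group I ribozyme library with randomized positions was T7-transcribed and gel-purified. In triplicate, 10 pmol RNA in EPPS pH 7.5 was reacted with 50 pmoles of a 30-nt RNA substrate for 1 h at 37 °C across several added MgCl2 levels (1–48 mM), then stopped with EDTA. Products were reverse transcribed from a substrate-complementary primer, PCR-amplified and sequenced (HiSeq 4000). Fitness is a variant's read proportion after selection over that before, normalised to wild type.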
A111U A120U A145C C150U U176C: the reverse-splicing fitness is 0.0423.

Regarding C82G A111C C150U C169G U176A, the reverse-splicing fitness amounted to 0.0133.

Regarding A120C A145G C150A U176A, the reverse-splicing fitness turned out to be 0.263.

As for C82A A111G A120C A145U C150A C169U U176G, the reverse-splicing fitness is 0.00664.

As to C82G A120U C150G, the reverse-splicing fitness is 0.0146.

Regarding A111C C150U, the reverse-splicing fitness was 0.709.

Regarding A120G A145C C150G C169A, the reverse-splicing fitness stood at 0.0659.

As to C82U A111U A145U C169U U176G, the reverse-splicing fitness worked out at 0.00446.

As to C82A A111U A120U A145C C150G C169U, the reverse-splicing fitness turned out to be 0.00392.

On to C82A A111C A120U C169U, for which the reverse-splicing fitness stood at 0.00555.

In the case of C82U A111U A145C C150A C169U, the reverse-splicing fitness was 0.00873.

For the variant C82U A111G C169A U176A, the reverse-splicing fitness is 0.0124.

As for C82U A120U A145G C169G U176A, the reverse-splicing fitness worked out at 0.00271.

With C82U A120C A145U C150A C169U, the reverse-splicing fitness amounted to 0.00769.

Take C82G A111C A120G C169A U176A: the reverse-splicing fitness stood at 0.016.

On to C82A A111C A120U C150A C169U U176G, for which the reverse-splicing fitness worked out at 0.00284.

On to C82A A111C A120U A145U C150G C169G, for which the reverse-splicing fitness is 0.00401.

Regarding A111G A145C C150G C169U, the reverse-splicing fitness worked out at 0.0255.

C82G A111C A120U A145U C169A U176A: the reverse-splicing fitness is 0.00261.

Take C82U A111C A120C A145C C150U C169G U176C: the reverse-splicing fitness amounted to 0.0118.

Take C82G A111C A145C C150G: the reverse-splicing fitness is 0.0271.

For the variant C82U A120G A145U C150A C169U U176A, the reverse-splicing fitness was found to be 0.022.

In the case of C82A A111U A120U A145G, the reverse-splicing fitness amounted to 0.0209.

For C82A A111C A120C A145G C150U C169A U176C, the reverse-splicing fitness was 0.0162.

For C82U A111U A120C A145G C150A C169A U176C, the reverse-splicing fitness was 0.0189.

In the case of A111U A120C C169A U176A, the reverse-splicing fitness came to 0.0174.

A111U C150G U176A: the reverse-splicing fitness was found to be 0.0805.

As for A145U C150A C169G, the reverse-splicing fitness came to 0.0369.

In the case of C82A A111C A145G C169G U176G, the reverse-splicing fitness amounted to 0.00836.

C82G A111C A120C A145U C150U C169G: the reverse-splicing fitness is 0.00788.

Turning to C82U A111C A145C C150A U176G, the reverse-splicing fitness came out at 0.00685.

Turning to A111C A120G A145U C169U U176A, the reverse-splicing fitness came out at 0.042.

For the variant C82A A111G A145G C169A, the reverse-splicing fitness is 0.0102.

Consider A111U A120U A145C C169A U176C, for which the reverse-splicing fitness came out at 0.00249.

C82U A111G A120U A145G C150G C169U: the reverse-splicing fitness turned out to be 0.00654.

Turning to C82A A111U A120U C150G C169U, the reverse-splicing fitness was determined as 0.00659.

Take C82G A111G A120U A145G C150G C169A: the reverse-splicing fitness is 0.00921.

As for A111G A120U A145C C150U C169G U176C, the reverse-splicing fitness worked out at 0.0028.

For C82A A111G C150G, the reverse-splicing fitness came out at 0.024.

Take C82G A111C A120C C150A C169A U176A: the reverse-splicing fitness is 0.0164.

Regarding C82G A111U A120U C150A U176G, the reverse-splicing fitness worked out at 0.00383.

Turning to C82U A111U A145G C150G C169A U176A, the reverse-splicing fitness was 0.0125.

Regarding C82A A111U A120G A145G C169U U176G, the reverse-splicing fitness turned out to be 0.00504.

In the case of C82G A111C A120U A145C C150A C169G, the reverse-splicing fitness is 0.00326.

Take C82G A120C A145U C169G U176A: the reverse-splicing fitness is 0.0121.

With A111U A120C A145U C150U C169A U176A, the reverse-splicing fitness stood at 0.0134.

Turning to A111U A120G A145G C150G C169A U176C, the reverse-splicing fitness is 0.0131.

In the case of C82G A145C C150U C169U U176C, the reverse-splicing fitness was 0.00905.

Consider C82G A111U A145U C169U, for which the reverse-splicing fitness was 0.0113.

As to C82G A111G A120G A145G C169U U176C, the reverse-splicing fitness came to 0.019.

Turning to C82G A111C A120G A145C C150A C169G U176C, the reverse-splicing fitness was 0.0158.

As to C82A A111U A120U C150U C169A U176C, the reverse-splicing fitness came to 0.00344.

For the variant C82G A111C A120C A145G C169U U176A, the reverse-splicing fitness was 0.0139.

Take A111G A120C A145U C169U U176A: the reverse-splicing fitness amounted to 0.0589.

Turning to C82U A111U A120U A145G C150U C169G U176A, the reverse-splicing fitness was determined as 0.00606.

Turning to A111C A120C C169G U176G, the reverse-splicing fitness was determined as 0.00524.

With C82U A111C C150G C169G U176G, the reverse-splicing fitness was determined as 0.00523.

As for C82U A111C C150U C169A U176A, the reverse-splicing fitness worked out at 0.0124.

As to C82G A111C A120C A145G C150A C169A U176A, the reverse-splicing fitness was found to be 0.0165.

With C82A A111G A120C A145C C150G C169A U176G, the reverse-splicing fitness worked out at 0.00545.

As to C82U A111C A120C A145U C150G U176G, the reverse-splicing fitness came to 0.00321.

For the variant A120G A145G C150G C169A U176A, the reverse-splicing fitness was found to be 0.0181.

Consider A120G C150U C169G U176C, for which the reverse-splicing fitness was 0.195.

Turning to C82A A111G A120U A145U C150A C169A U176A, the reverse-splicing fitness amounted to 0.00224.

As to C82A A111U A120U A145U C150G C169U U176C, the reverse-splicing fitness was determined as 0.00313.

On to C82U A111C C150G, for which the reverse-splicing fitness is 0.0163.

For C82G A111U A120U A145G C150G C169A U176G, the reverse-splicing fitness was 0.00502.

For the variant C82U A111G A120C A145U C150A U176C, the reverse-splicing fitness is 0.0125.

In the case of C82A A111G A120U A145G C150G C169U U176G, the reverse-splicing fitness amounted to 0.00328.

Turning to C82A A111G A145C C150U U176A, the reverse-splicing fitness worked out at 0.0434.

Consider C82A A111U A120G A145C C150A U176A, for which the reverse-splicing fitness was 0.00932.

In the case of C82G A111G A145U C150A C169G U176C, the reverse-splicing fitness stood at 0.0146.

Take C82U A120C A145U: the reverse-splicing fitness worked out at 0.155.

Turning to C82A A111G A120U C169G U176A, the reverse-splicing fitness worked out at 0.00294.

As for C82A A111C A120C A145U C150A C169U U176C, the reverse-splicing fitness came out at 0.0143.

With A111C A120G A145C C150U C169G U176G, the reverse-splicing fitness turned out to be 0.00474.

In the case of C82U A111G A120G C150G C169U U176C, the reverse-splicing fitness came to 0.0124.

Regarding C82A A145G C150A C169U U176A, the reverse-splicing fitness worked out at 0.0138.

Take C82G A145G C150G C169G: the reverse-splicing fitness is 0.00848.

C82A A111C A145G C150A C169G: the reverse-splicing fitness amounted to 0.00824.

For A111U A120G A145C C169G U176A, the reverse-splicing fitness was 0.0371.

Consider A111U A120C A145G C150G C169G U176A, for which the reverse-splicing fitness is 0.0094.

A111G A120G A145G C169U U176G: the reverse-splicing fitness was 0.00896.

These data come from the RNAGym collection of RNA variant scans (doi:10.1093/molbev/msab373).
